Key:
Test in all cases: pull-down; GST pull-down with purified GST or GST-p37 as bait, p97 variants and SPI or SPI variant, in the presence of ATP; Western blot
Settings in all cases: both partners purified
[1] = biological target: T1, His-tagged p97 G54K (human, UniProt P55072 2-806, G54K)
T1 construct: p97 (VCP), human, point mutation in the N-domain groove; source: generated in bacteria, purified

[2] = biological target: T2, His-tagged p97 Y143A (human, UniProt P55072 2-806, Y143A)
T2 construct: p97 (VCP), human, point mutation in the N-domain groove; source: generated in bacteria, purified
T2 sequence (P55072 2-806 Y143A): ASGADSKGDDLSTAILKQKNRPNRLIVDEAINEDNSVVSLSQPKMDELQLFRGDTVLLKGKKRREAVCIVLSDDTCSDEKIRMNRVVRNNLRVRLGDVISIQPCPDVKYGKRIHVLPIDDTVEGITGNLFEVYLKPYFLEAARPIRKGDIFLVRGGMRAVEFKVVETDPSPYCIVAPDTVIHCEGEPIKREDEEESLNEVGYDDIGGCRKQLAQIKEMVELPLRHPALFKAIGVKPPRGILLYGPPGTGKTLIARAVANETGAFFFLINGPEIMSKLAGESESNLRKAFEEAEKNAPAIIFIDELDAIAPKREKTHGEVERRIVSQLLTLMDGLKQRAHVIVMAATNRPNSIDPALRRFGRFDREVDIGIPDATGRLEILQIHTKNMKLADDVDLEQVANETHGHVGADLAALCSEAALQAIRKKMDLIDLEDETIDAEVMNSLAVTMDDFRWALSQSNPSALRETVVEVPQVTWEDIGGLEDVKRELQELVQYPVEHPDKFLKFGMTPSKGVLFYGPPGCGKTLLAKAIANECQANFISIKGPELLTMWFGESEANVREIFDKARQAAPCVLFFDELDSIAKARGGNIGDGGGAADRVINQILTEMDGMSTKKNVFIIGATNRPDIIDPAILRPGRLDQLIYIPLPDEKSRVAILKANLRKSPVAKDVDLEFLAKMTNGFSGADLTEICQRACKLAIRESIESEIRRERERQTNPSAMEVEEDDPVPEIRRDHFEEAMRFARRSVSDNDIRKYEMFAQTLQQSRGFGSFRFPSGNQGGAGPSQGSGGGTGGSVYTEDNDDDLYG

[3] = biological target: T3, His-tagged p97 (from bacteria), wild type (human, UniProt P55072 2-806)
T3 construct: p97 (VCP), human; Wild-type p97 of the GST pull-down assays; also called VCP; source: generated in bacteria, purified
T3 sequence (P55072 2-806): as the sequence (P55072 2-806 Y143A) above, with A142Y counted along it

T1 sequence (P55072 2-806 G54K): as the sequence (P55072 2-806 Y143A) above, with G53K, A142Y counted along it

binding result [1]: binds
binding result [2]: binds
binding result [3]: binds
B1: GST-p37 (natural protein, human, UniProt Q14CS0 1-331, looked up)
chain: MAEGGGPEPGEQERRSSGPRPPSARDLQLALAELYEDEVKCKSSKSNRPKATVFKSPRTPPQRFYSSEHEYSGLNIVRPSTGKIVNELFKEAREHGAVPLNEATRASGDDKSKSFTGGGYRLGSSFCKRSEYIYGENQLQDVQILLKLWSNGFSLDDGELRPYNEPTNAQFLESVKRGEIPLELQRLVHGGQVNLDMEDHQDQEYIKPRLRFKAFSGEGQKLGSLTPEIVSTPSSPEEEDKSILNAVVLIDDSVPTTKIQIRLADGSRLIQRFNSTHRILDVRNFIVQSRPEFAALDFILVTSFPNKELTDESLTLLEADILNTVLLQQLK
notes: Bait of the GST pull-down assays; source: generated in bacteria, purified
